Measured values as given in PMC6698954 (Antibodies, 2018).

Molecular target: T1, Recombinant WEEV glycoprotein (E2/E3E2) (Western equine encephalitis virus, …, UniProt P13897)
T1 construct: source: bought: IBT Bioservices
Test: SPR; ProteOn XPR36; […] (20 µg/mL in 10 mM sodium acetate pH 5.0); […]
Settings: both partners purified

Binder	Kd [nM]	koff [s⁻¹]	kon [M⁻¹ s⁻¹]
anti-WEEV E2/E3E2 single-domain antibody WH11 (VHH, also called Bt-WH11) VHH: EVQLQASGGGLVQAGGSLRLTCVASGLTFVNYALDWYRQAPGKERELVAGMWSDGVAYYGDFVKGRFTMSRDNAKNMVYLQMNSLEPEDTAVYSCAARSRPTTQYDYWGQGTQVTVSS	22	0.0033	150000
anti-WEEV E2/E3E2 single-domain antibody WF4 (VHH, also called Bt-WF4) VHH: DVQLQASGGGLVQAGGSLRLSCAVSDNTTSLNGMGYYRGPPGKQREFVAYARNNGAPKYADSVMGRFTISVDNSKATVYLQMNNLGPEDTALYYCYAPDRWHTYWAGGTQVTVSS	24	0.0015	63000
anti-WEEV E2/E3E2 single-domain antibody WE10 (VHH, also called Bt-WE10) VHH: DVQLQASGGGLVQAGGSLRLSCVASGLTFVNYAIDWYRQAPGKEREVVAGMWNDGVAYYGDFVKGRFTIARDNAKNTVYLQMNNLKPEDTAVYFCGARSRPNLQYDYWGQGTQVTVSS	12	0.00083	70000
anti-WEEV E2/E3E2 single-domain antibody WC10 (VHH, also called Bt-WC10) VHH: DVQLQASGGGLVEAGGSLRLSCTTSGISVRNSDMGWYRQGPGKQRELIARSSRGGATNYLDSVTGRFTISRDNIKNTVFLQMNSLKPEDTAVYYCNTNPINHWNVWGQGTQVTVSS	8.5	0.85	1e+08
anti-WEEV E2/E3E2 single-domain antibody WD11f (VHH, also called Bt-WD11f) VHH: EVQLQASGGGLVQSGGSLRLSCAGSGGTESSYRMAWFRQAPGTERVFVARVSDGGGSILYADSAKGRFTISRDNGKNTIHLQMFSLKPEDTAVYFCAAAFSWMPPSTVAADYEYWGQGTQVTVSS	7.2	0.53	7.3e+07
anti-WEEV E2/E3E2 single-domain antibody WB9 (VHH, also called Bt-WB9) VHH: DVQLQASGGGLVQAGGSLRLSCATSGISVSNSDMGWYRQGPGKQRELVARNSRAGTTNYLDSVKGRFTISRDNAKNMVFLQMNSLKLEDTAVYYCNTNPINRWNIWGQGAQVTVSS	2.6	0.0029	1.1e+06
